# From US20020164767
# Tested on: PFEK-protease C-E-6XHIS zymogen
# Sequence (chain, as listed by the source): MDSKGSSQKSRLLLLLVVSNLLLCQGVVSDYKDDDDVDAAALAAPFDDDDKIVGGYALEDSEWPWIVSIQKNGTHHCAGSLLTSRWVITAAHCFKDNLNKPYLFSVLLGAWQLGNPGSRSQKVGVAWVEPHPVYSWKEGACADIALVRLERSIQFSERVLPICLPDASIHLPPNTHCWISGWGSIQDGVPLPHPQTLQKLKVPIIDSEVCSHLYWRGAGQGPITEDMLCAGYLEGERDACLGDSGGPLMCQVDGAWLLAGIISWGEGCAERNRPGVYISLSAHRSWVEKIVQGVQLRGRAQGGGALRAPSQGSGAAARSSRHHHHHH
substance,measurement,value
enterokinase,cleavage of the zymogen (SDS-PAGE and anti-FLAG Western blot),This demonstrates the quantitative cleavage of the expressed and purified zymogen to generate the processed and activated protease
